Reference: publication PMC8666677 (The Journal of Biological Chemistry, 2021)
No end group written: not given here. fl = not defined here

T1: ClpS adapter (E. coli, UniProt P0A8Q6 1-106)
T1 sequence: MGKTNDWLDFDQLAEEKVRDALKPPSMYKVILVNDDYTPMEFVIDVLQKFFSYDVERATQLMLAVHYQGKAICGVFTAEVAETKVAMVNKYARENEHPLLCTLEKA

B1: LLYVQRDSKEC-fl fluorescent N-degron peptide (peptide)
peptide: LLYVQRDSKEC-fl
modifications: reading uncertain; also: printed as LLYVQRDSKEC-fl

How the values were obtained:
[1] = biological target: ^D1-3YAClpA^xl (cross-linked ClpA pseudohexamer with alternating WT and defective D1 pore loops) (E. coli) (UniProt P0ABH9)
ClpS adapter = biological target: T1, ClpS adapter; test: fluorescence polarisation

Molecule | KM of ClpAP degradation of ^UFtitin-ssrA, against ClpA^xl [1] | binding result (ClpS adapter)
^UFtitin-ssrA (ssrA-tagged titin^I27 domain unfolded by chemical modification of its two partially buried cysteines) (domain or fragment) | 3 fold | –
B1 | – | binds
